Series [1] deals with FDB muscle fibers from mg53−/− mice. The series is described as follows: FM1-43 dye entry after UV-laser damage, mg53−/− FDB muscle fibers. The class given is cell-based. Particulars: mg53−/− fibers; +Zn-HPT. On the procedure: (§1) FIG. 20. Protective effect of zinc on membrane repair is lost in mg53−/− skeletal muscle. (a) individual flexor digitorum brevis (FDB) muscle fibers were isolated from wild type (WT) mice (3-6 months). A strong UV laser was applied to the FDB fiber that caused local damage to the muscle (arrow). Entry of FM1-43 fluorescent dye (2.5 μM) was used as an indicator for the measurement of membrane repair capacity. The images were taken 200 s following UV irradiation (control). […] (d) Schematic diagram of zinc-binding motifs in MG53. The amino-terminus of MG53 contains two putative zinc-binding motifs: one located at the RING motif (a.a. 1-56, human cDNA), and the other located at the B-box motif (a.a. 86-117, human cDNA). The specific amino acids that participate in zinc-binding are indicated.
as §1, with “Protective” for “FIG. 20. Protective”, “To access membrane repair capacity,” for “(a)”, “months) (FIG. 20a).” for “months).”, “Summary data for panel a and b (FIG. 20c). […]” for “(d)”, “indicated (FIG. 20d).” for “indicated.”

Series [2] relates to C2C12 cells expressing GFP-MG53. The series is described as follows: GFP-MG53 redistribution on agent application without injury. The format is cell-based, murine. Particulars: 20 μM Zn-HPT, prolonged incubation (15 min). The text has this:
Extracellular zinc entry is essential for MG53-mediated vesicle translocation to acute membrane injury sites. To follow the process of intracellular vesicle translocation associated with repair of acute membrane damage, GFP-MG53 fusion protein was expressed in C2C12 myoblast cells (FIG. 21a). […] Acute injury of the cell generated by penetration of a microelectrode caused rapid translocation of MG53-containing vesicles at the injury site (arrow, right panel). […] C2C12 cells transiently transfected with GFP-MG53 was incubated with 20 μM Zn-HPT. Under control condition (0 min), GFP-MG53 was distributed in the cytosol, as well as intracellular vesicles (FIG. 21d).
An active ingredient from notoginseng can facilitate MG53-membrane repair function. GFP-MG53 was expressed in C2C12 cells and then these cells were perfused with an alcohol extract from notoginseng. […] Based on this observation, we reasoned that a therapeutic approach with the combination of MG53 and notoginseng may provide additive protective effects in preventing both inflammation and membrane damage to the cells, and thus can improve the function of MG53 when applied in tandem with recombinant MG53 protein or when applied alone as a supplement of pharmaceutical.

Series [3] concerns FDB muscle fibers from wild type (WT) mice. The series is described as follows: FM1-43 dye entry after UV-laser damage, wild type FDB muscle fibers. The class given is cell-based. To be noted: WT fibers; 2 μM zinc-ionophore. Here is the method:
as §1
as §1, with “Protective” for “FIG. 20. Protective”, “To access membrane repair capacity,” for “(a)”, “months) (FIG. 20a).” for “months).”, “Summary data for panel a and b (FIG. 20c). […]” for “(d)”, “indicated (FIG. 20d).” for “indicated.”

For series [4], the system named is E3-ligase activity of MG53. As to the kind of experiment: In vitro ubiquitination with ATP, ubiquitin, E1 and E2 enzymes. The format is biochemical. To be noted: Ubc4 or UbcH5 as E2. Here is the method: To test whether MG53 can catalyze ubiquitination in vitro, we prepared a recombinant maltose-binding protein (MBP) fusion protein for MG53. MBP-MG53 was incubated with ATP, ubiquitin, E1 and E2 enzymes, and subjected to immunoblotting with the anti-MBP antibody. […] The exclusion of either ubiquitin, E1 or E2 (UbcH5) from the assay abolished the appearance of such ladders, confirming that the modification acquired by MBP-MG53 was indeed auto-ubiquitination. […] Thus, MG53 is a Ring-finger type ubiquitin ligase that couples with Ubc4/5 sub-family of E2 enzymes.

Series [5] has as its system C2C12 cells expressing GFP-MG53. The series is described as follows: Repair of acute membrane damage: translocation to microelectrode injury site. To be noted: C2C12 cells. The class given is cell-based, murine. On the procedure:
To follow the process of intracellular vesicle translocation associated with repair of acute membrane damage, GFP-MG53 fusion protein was expressed in C2C12 myoblast cells (FIG. 21a). […]
Cell culture—The C2C12 murine myoblast cell line used for all studies was purchased from the American Type Culture Collection (Manassas, Va.). Cells were grown in a humidified environment at 37° C. and 5% CO2 in DMEM medium for C2C12 or Ham's F12 medium for CHO cells supplemented with 10% fetal bovine serum, 100 units/ml penicillin and 100 ug/ml streptomycin. In order to induce myotube differentiation, C2C12 myoblasts were grown to confluence and the medium was switched to DMEM containing 2% horse serum, penicillin (100 U/ml), streptomycin (100 μg/ml). For transient transfections, C2C12 myoblasts or CHO cells were plated at 70% confluence in glass-bottom dishes. After 24 hours, cells were transfected with plasmids described above using GeneJammer reagent (Stratagene). Cells were visualized by live cell confocal imaging at 24-48 hours after transfection or at times indicated for individual experiments. In some experiments, C2C12 myoblasts were allowed to differentiate into myotubes for the indicated time before observation.
Live cell imaging—To monitor intracellular trafficking of GFP-MG53 either CHO or C2C12 cells were cultured in glass-bottom dishes (Bioptechs Inc.) and transfected with the plasmids described above. Fluorescence images (512×512) were captured at 3.18 s/frame using a BioRad 2100 Radiance laser scanning confocal microscope with a 63×1.3NA oil immersion objective.

A further series deals with mg53−/− myotubes. The series is described as follows: Membrane repair in transfected mg53−/− myotubes. The format is cell-based, mice. To be noted: primary cultured mg53−/− myotubes. The text has this:
The entry of FM4-64, a red-shifted variant of FM1-43, was used as an index of membrane repair capacity in mg53−/− myotubes transfected with GFP-MG53 and GFP-C242A. Following UV-bleaching of the green fluorescence, rapid translocation of GFP-MG53 took place at the injury site, whereas GFP-C242A remained static due to its defective oligomerization properties (FIG. 16E, 17A).
Similar defects with GFP-C29L were also observed in C2C12 myotubes (FIG. 18e, middle).

The nature of series [6]: PIP2-Strip lipid dot blot. The format is binding. To be noted: 1 μg/ml.
Series [7] concerns HEPM cells. The series is described as follows: LDH release after electroporation, HEPM. The format is cell-based, human. Particulars: 10 ug/mL, extracellular; various field strengths. Here is the method: Recombinant MG53 can protect gum lining cells from cell membrane damage. (a) HEPM cells (5×10^4) were treated with 10 ug/mL recombinant human MG53 or vehicle control and then electroporated at various field strengths (FIG. 36). […] (b) MG53 or a vehicle control was added to recombinant LDH to generate standard curves for LDH activity.
On the technique in general: Release of lactate dehydrogenase indicates damage to the cell membrane.

In series [8] the test system is Human IB3 airway epithelial cells. The series is described as follows: LDH release after glass bead damage, IB3. To be noted: glass beads; external protein. The class given is cell-based. On the procedure:
External MG53 can reseal to membrane damage in airway epithelial cells. Human IB3 airway epithelial cells were treated with external recombinant human MG53 or vehicle control and then exposed to mechanical membrane damage by glass beads (FIG. 48).

In series [9] the test system is HEK293 cells. As to the kind of experiment: LDH release after glass microbead damage, HEK293. The class given is cell-based, human. Particulars: glass microbeads. Here is the method: Recombinant MG53 can protect kidney cells from mechanical cell membrane damage. HEK293 cells (8×10^4) were treated with glass microbeads to induce mechanical damage (FIG. 37). Different does of recombinant human MG53 or vehicle control was applied to the samples when glass beads were added to the media. Cells were rotated on an orbital shaker and then the supernatant was analyzed for LDH levels.
Externally applied recombinant MG53 requires phosphatidylserine (PS) binding to reseal damaged membranes. HEK293 cells were treated with recombinant human MG53 or vehicle and them damaged by shaking in the presence of glass microbeads (black bars) (FIG. 40). Membrane damage is measured by LDH release from cells that is recorded by colormetric assay recorded at 488 nm. […] Thus, MG53 must be able to bind exposed PS on damaged cells in order to facilitate membrane repair. * p<0.05
HEK293 cells were treated with recombinant human MG53 or vehicle and them damaged by shaking in the presence of glass microbeads (black bars) (FIG. 41). Membrane damage is measured by LDH release from cells that is recorded by colormetric assay recorded at 488 nm. […] Thus, MG53 must be able to bind exposed PS on damaged cells in order to facilitate membrane repair. * p<0.05

Series [10] concerns Hela cervical epithelial cells. As to the kind of experiment: Resealing after glass bead damage, Hela. The class given is cell-based. To be noted: glass beads. The text has this:
Effects of MG53 are specific to the function of the protein.

Series [11] deals with HEPM cells. As to the kind of experiment: LDH release after LPS treatment. The format is cell-based, human. To be noted: LPS 1 mg/mL, 24 hours, co-incubation. The source says:
Lipopolysaccarides can induce membrane damage in HEPM cells that can be prevented by exposure to MG53.

In series [12] the test system is HEK293 cells. As to the kind of experiment: LDH release after electroporation, HEK293. To be noted: 10 ug/mL, extracellular; various field strengths. The class given is cell-based, human. Here is the method: Genetic overexpression of MG53 can prevent membrane damage. Human embryonic kidney (HEK293) cells were transfected with RFP-MG53 or RFP and then electroporated with fields of varying strength (FIG. 32). The amount of membrane damage was measured by assessing the amount of lactate dehydrogenase (LDH) that leaks into the extracellular media out of holes in the plasma membrane produced by electroporation. The more damage that occurs to the membrane, the higher the reading on the LDH assay will be. […] Thus, expression of exogenous MG53 in non-muscle cells can increase the capacity for cell membrane repair in such non-muscle cells.
Recombinant MG53 can protect kidney cells from cell membrane damage. (a) HEK293 cells (8×10^4) were treated with 10 ug/mL recombinant human MG53 or vehicle control and then electroporated at various field strengths (FIG. 35). […] (b) MG53 or a vehicle control was added to recombinant LDH to generate standard curves for LDH activity.

With `[O-]n1ccccc1=S.[O-]n1ccccc1=S.[Zn+2]` [Zn-HPT, Zn-1-hydroxypyridine-2-thine], the “membrane repair capacity (FM1-43 dye entry)” value in series [1] is recorded as “did not produce protective effect on membrane repair”; in series [3], “increased membrane repair capacity”. Further, the “redistribution of GFP-MG53” value in [2] was “caused redistribution of GFP-MG53 toward the cell surface membrane and the intracellular membrane compartments”.

B1: C29L: MG53 mutant, Cys-29 in the Ring-finger motif replaced with leucine; GFP fusion, MBP fusion in b268 (protein)
chain: MSAAPGLLRQELSCPLCLQLFDAPVTAELGHSFCRACLIRVAGEPAADGTVACPCCQAPTRPQALSTNLQLSRLVEGLAQVPQGHCEEHLDPLSIYCEQDRTLVCGVCASLGSHRGHRLLPAAEAQARLKTQLPQQKMQLQEACMRKEKTVAVLEHQLVEVEETVRQFRGAVGEQLGKMRMFLAALESSLDREAERVRGDAGVALRRELSSLNSYLEQLRQMEKVLEEVADKPQTEFLMKFCLVTSRLQKILSESPPPARLDIQLPVISDDFKFQVWKKMFRALMPALEELTFDPSSAHPSLVVSSSGRRVECSDQKAPPAGEDTRQFDKAVAVVAQQLLSQGEHYWEVEVGDKPRWALGVMAADASRRGRLHAVPSQGLWLLGLRDGKILEAHVEAKEPRALRTPERPPARIGLYLSFADGVLAFYDASNPDVLTPIFSFHERLPGPVYPIFDVCWHDKGKNAQPLLLVGPEQEQA
modifications: left off: large carriers
notes: MG53 mutant, Cys-29 in the Ring-finger motif replaced with leucine; GFP fusion, MBP fusion
As to B1, the “ubiquitination / intrinsic E3-ligase activity” value in [4] is “significantly reduced”. Further, the “Membrane Repair (+Zn-HPT)” value in series [5] (2 μM Zn-HPT, listed as GFP-C29L) is on record as “partially rescue the movement”. Further, in [5] (acute membrane damage), the “translocation to injury site and membrane repair function of GFP fusion protein” value is “immobile and ineffective in repair of membrane injury”. Moreover, the “Membrane Repair (−Zn-HPT)” value in series [5] (extracellular solution with nominal free zinc, listed as GFP-C29L) is reported as “defective movement toward the acute injury site”. Also, the “translocation to the plasma membrane following injury” value with mg53−/− myotubes is “remained generally unresponsive to acute cell injury”.

B2: recombinant human MG53: recombinant mitsugumin53 protein, muscle-specific TRIM family protein, applied extracellularly (protein)
chain: MSAAPGLLHQELSCPLCLQLFDAPVTAECGHSFCRACLGRVAGEPAADGTVLCPCCQAPTRPQALSTNLQLARLVEGLAQVPQGHCEEHLDPLSIYCEQDRALVCGVCASLGSHRGHRLLPAAEAHARLKTQLPQQKLQLQEACMRKEKSVAVLEHQLVEVEETVRQFRGAVGEQLGKMRVFLAALEGSLDCEAERVRGEAGVALRRELGSLNSYLEQLRQMEKVLEEVADKPQTEFLMKYCLVTSRLQKILAESPPPARLDIQLPIISDDFKFQVWRKMFRALMPALEELTFDPSSAHPSLVVSSSGRRVECSEQKAPPAGEDPRQFDKAVAVVAHQQLSEGEHYWEVDVGDKPRWALGVIAAEAPRRGRLHAVPSQGLWLLGLREGKILEAHVEAKEPRALRSPERRPTRIGLYLSFGDGVLSFYDASDADALVPLFAFHERLPRPVYPFFDVCWHDKGKNAQPLLLVGPEGAEA
On to B2, for which the lipid binding result in [6] is “specifically binds phosphatidylserine (PS) and not other membrane lipids”. Further, the “membrane damage (LDH) from electroporation” value with HEPM cells [7] and in the series with HEK293 cells [12] was “can prevent damage from electroporation” each time. Moreover, the “cell membrane damage (LDH release)” value in [8] is on record as “could prevent cell membrane damage due to mechanical damage”. This molecule also had a saturating dose with HEK293 cells [9] of roughly 10 µg/mL. Further, the “mechanical membrane damage (LDH levels)” value in the series on HEK293 cells [9] (different doses) is “can prevent mechanical membrane damage”. For the same molecule, the membrane resealing entry is on record as “effective at resealing damage” in [10] and “can no longer facilitate membrane resealing” in [10] (recombinant protein boiled). Besides, the “prevention of LPS induced damage (LDH release)” value in the series on HEPM cells [11] is recorded as “can prevent damage to HEPM cells produced by LPS”.

Source of the values: patent US9458465B2, “Compositions and methods to modulate cell membrane resealing” (RUTGERS, THE STATE UNIVERSITY OF NEW JERSEY, priority 2007, dated 2016).
